PMC10988713

B1: RnMFE1 (Rattus norvegicus) (protein)
chain: MAEYLRLPHSLAMIRLCNPPVNAVSPTVIREVRNGLQKAGSDHTVKAIVICGANGNFCAGADIHGFSAFTPGLALGSLVDEIQRYQKPVLAAIQGVALGGGLELALGCHYRIANAKARVGLPEVTLGILPGARGTQLLPRVVGVPVALDLITSGKYLSADEALRLGILDAVVKSDPVEEAIKFAQKIIDKPIEPRRIFNKPVPSLPNMDSVFAEAIAKVRKQYPGVLAPETCVRSIQASVKHPYEVGIKEEEKLFMYLRASGQAKALQYAFFAEKSANKWSTPSGASWKTASAQPVSSVGVLGLGTMGRGIAISFARVGISVVAVESDPKQLDAAKKIITFTLEKEASRAHQNGQASAKPKLRFSSSTKELSTVDLVVEAVFEDMNLKKKVFAELSALCKPGAFLCTNTSALNVDDIASSTDRPQLVIGTHFFSPAHVMRLLEVIPSRYSSPTTIATVMSLSKKIGKIGVVVGNCYGFVGNRMLAPYYNQGFFLLEEGSKPEDVDGVLEEFGFKMGPFRVSDLAGLDVGWKIRKGQGLTGPSLPPGTPVRKRGNSRYSPLGDMLCEAGRFGQKTGKGWYQYDKPLGRIHKPDPWLSTFLSQYREVHHIEQRTISKEEILERCLYSLINEAFRILEEGMAARPEHIDVIYLHGYGWPRHKGGPMFYAASVGLPTVLEKLQKYYRQNPDIPQLEPSDYLRRLVAQGSPPLKEWQSLAGPHGSKL
B2: RnMFE1 (Rattus norvegicus; E123A) (protein)
chain: MAEYLRLPHSLAMIRLCNPPVNAVSPTVIREVRNGLQKAGSDHTVKAIVICGANGNFCAGADIHGFSAFTPGLALGSLVDEIQRYQKPVLAAIQGVALGGGLELALGCHYRIANAKARVGLPAVTLGILPGARGTQLLPRVVGVPVALDLITSGKYLSADEALRLGILDAVVKSDPVEEAIKFAQKIIDKPIEPRRIFNKPVPSLPNMDSVFAEAIAKVRKQYPGVLAPETCVRSIQASVKHPYEVGIKEEEKLFMYLRASGQAKALQYAFFAEKSANKWSTPSGASWKTASAQPVSSVGVLGLGTMGRGIAISFARVGISVVAVESDPKQLDAAKKIITFTLEKEASRAHQNGQASAKPKLRFSSSTKELSTVDLVVEAVFEDMNLKKKVFAELSALCKPGAFLCTNTSALNVDDIASSTDRPQLVIGTHFFSPAHVMRLLEVIPSRYSSPTTIATVMSLSKKIGKIGVVVGNCYGFVGNRMLAPYYNQGFFLLEEGSKPEDVDGVLEEFGFKMGPFRVSDLAGLDVGWKIRKGQGLTGPSLPPGTPVRKRGNSRYSPLGDMLCEAGRFGQKTGKGWYQYDKPLGRIHKPDPWLSTFLSQYREVHHIEQRTISKEEILERCLYSLINEAFRILEEGMAARPEHIDVIYLHGYGWPRHKGGPMFYAASVGLPTVLEKLQKYYRQNPDIPQLEPSDYLRRLVAQGSPPLKEWQSLAGPHGSKL
B3: BCDE (Rattus norvegicus) (protein)
chain: ASGQAKALQYAFFAEKSANKWSTPSGASWKTASAQPVSSVGVLGLGTMGRGIAISFARVGISVVAVESDPKQLDAAKKIITFTLEKEASRAHQNGQASAKPKLRFSSSTKELSTVDLVVEAVFEDMNLKKKVFAELSALCKPGAFLCTNTSALNVDDIASSTDRPQLVIGTHFFSPAHVMRLLEVIPSRYSSPTTIATVMSLSKKIGKIGVVVGNCYGFVGNRMLAPYYNQGFFLLEEGSKPEDVDGVLEEFGFKMGPFRVSDLAGLDVGWKIRKGQGLTGPSLPPGTPVRKRGNSRYSPLGDMLCEAGRFGQKTGKGWYQYDKPLGRIHKPDPWLSTFLSQYREVHHIEQRTISKEEILERCLYSLINEAFRILEEGMAARPEHIDVIYLHGYGWPRHKGGPMFYAASVGLPTVLEKLQKYYRQNPDIPQLEPSDYLRRLVAQGSPPLKEWQSLAGPHGSKL
notes: truncated RnMFE1 from Ala260 (ASGQ) to the C-terminus, without domain A (ECH part); N-terminal His6 tag, E. coli BL21(DE3) pLysS
B4: HsHAD (Homo sapiens) (protein)
chain: SSSSTASASAKKIIVKHVTVIGGGLMGAGIAQVAAATGHTVVLVDQTEDILAKSKKGIEESLRKVAKKKFAENLKAGDEFVEKTLSTIATSTDAASVVHSTDLVVEAIVENLKVKNELFKRLDKFAAEHTIFASNTSSLQITSIANATTRQDRFAGLHFFNPVPVMKLVEVIKTPMTSQKTFESLVDFSKALGKHPVSCKDTPGFIVNRLLVPYLMEAIRLYERGDASKEDIDTAMKLGAGYPMGPFELLDYVGLDTTKFIVDGWHEMDAENPLHQPSPSLNKLVAENKFGKKTGEGFYKYK
notes: N-terminal His6 tag in pET28a, E. coli BL21(DE3) pLysS, dimer of 35 kDa subunits

Legend:
[1] = substrate: C[C@H](O)CC(=O)SCCNC(=O)CCNC(=O)[C@H](O)C(C)(C)COP(=O)(O)OP(=O)(O)OC[C@H]1O[C@@H](n2cnc3c(N)ncnc32)[C@H](O)[C@@H]1OP(=O)(O)O; experiment: purified protein; format: biochemical, Rattus norvegicus; settings: 1 mM NAD+, pH 9.0, 50 mM Tris, 50 mM KCl, 25 °C, HAD dehydrogenase reaction
[2] = substrate: C[C@H](O)CC(=O)SCCNC(=O)CCNC(=O)[C@H](O)C(C)(C)COP(=O)(O)OP(=O)(O)OC[C@H]1O[C@@H](n2cnc3c(N)ncnc32)[C@H](O)[C@@H]1OP(=O)(O)O; experiment: purified protein; format: biochemical, Homo sapiens; settings: 1 mM NAD+, pH 9.0, 50 mM Tris, 50 mM KCl, 25 °C

Protein	Km [1]	kcat [1]	Km [2]	kcat [2]
B1	11 ± 2 µM	1.9 ± 0.3 s⁻¹		
B2	10 ± 0.6 µM	2.4 ± 0.1 s⁻¹		
B3	5.2 ± 0.9 µM	1.6 ± 0.1 s⁻¹		
B4			19 ± 0.9 µM	42 ± 2 s⁻¹
